# Laboratory results from article PMC3552960.
# What was measured:
# [1] = target: CCR5 Thr^2.56(82)Lys mutant receptor (human) (UniProt P51681)
# [2] = target: wild type human CCR5 chemokine receptor (human) (UniProt P51681)
# [3] = target: CCR5 Thr^2.56(82)Pro mutant receptor (human) (UniProt P51681)
# [4] = target: CCR5 Thr^2.56(82)Pro/Arg^6.32(225)Gln double-mutant receptor (human) (UniProt P51681)
# [5] = target: CCR5 Thr^2.56(82)Lys/Arg^6.32(225)Gln double-mutant receptor (human) (UniProt P51681)
substance,measurement,setting,value
"HIV-1C Du151 gp150 envelope glycoprotein (Env), carboxy-terminally truncated (natural protein)",Env-directed cell fusion (luciferase) on HOS-CD4-Luc cells; maximum fusion,[1],4.6 % wild type
same,Env-directed cell fusion (luciferase) on HOS-CD4-Luc cells; maximum fusion efficiency (fusion coefficient) (fusion coefficient),[1],0.84
same,Env-directed cell fusion (luciferase) on HOS-CD4-Luc cells; maximum fusion efficiency (fusion coefficient: luciferase activity divided by mean fluorescence) (fusion coefficient),[2],11.8
same,Env-directed cell fusion (luciferase) on HOS-CD4-Luc cells; maximum fusion,[3],135 % wild type
same,Env-directed cell fusion (luciferase) on HOS-CD4-Luc cells; maximum fusion efficiency (fusion coefficient) (fusion coefficient),[3],16.5
same,Env-directed cell fusion (luciferase) on HOS-CD4-Luc cells; maximum fusion,[4],135 % wild type
same,Env-directed cell fusion (luciferase) on HOS-CD4-Luc cells; maximum fusion efficiency (fusion coefficient) (fusion coefficient),[4],18.8
same,Env-directed cell fusion (luciferase) on HOS-CD4-Luc cells; maximum fusion,[5],16.8 % wild type
same,Env-directed cell fusion (luciferase) on HOS-CD4-Luc cells; maximum fusion efficiency (fusion coefficient) (fusion coefficient),[5],1.9
